Patent US6191256A, “Recombinant factor VIII binding peptides” (Bayer Corporation, priority 1998, dated 2001)

Assays:
rFVIII [1] = target: T1, rFVIII (Homo sapiens, UniProt P00451); assay: confirmatory binding assay in filtration plate format using 14C-rFVIII; settings: for 0.5M CaCl2 % total / 2% acetic acid % total / 2% acetic acid dpm / 0.5M CaCl2 dpm: 5 mg beads; for 0.5M CaCl2 dpm: 5° C.; for beads % total / beads dpm: remaining on beads after washes
Description: Confirmatory binding assays were performed in a filtration plate format using individual peptide sequences synthesized directly onto the TOYOPEARL AF amino 650 M resin, at a final substitution density of 0.1 mmole/g resin. A slurry of each individual peptide sequence was prepared using deionized water. A 100 μL volume of beads (corresponding to 5 mg) was loaded into each well of the filtration plate (MULTISCREEN Assay System, Millipore, Bedford, Mass.), in triplicate for each peptide sequence. Beads were washed with 20% ethanol and incubated overnight with equilibration buffer (20 mM imidazole, 10 mM
CaCl2, 0.105 M NaCl, pH 6.9). A 100 μL aliquot of ^14 C-rFVIII diluted in neat PPF to a final concentration of 20-30 nM was loaded into each well and incubated for 1 hour at 5° C. Filtrate (unbound ^14 C-rFVIII) was collected into a microtiter plate and transferred to liquid scintillation vials for dpm counting. Beads were washed sequentially with: 100 μL of equilibration buffer for 15 minutes, 200 μL of 0.5 M CaCl2 (in equilibration buffer), 200 μL of 1.0 M CaCl2 (in equilibration buffer), and 200 uL of 2% by volume glacial acetic acid in water, for 1 hour each at 5° C. Scintillation counting on the unbound ^14 C-rFVIII (plus equilibration buffer wash), salt and acid washes, as well as on the beads was then performed and the overall mass balance calculated.
Beads presenting the appropriate peptide sequence on the surface were placed in the filtration plate wells and incubated sequentially with equilibration buffer, ^14 C-rFVIII in PPF, equilibration buffer, 0.5 M CaCl2 wash, 1.0 M CaCl2 wash and 2% acetic acid wash. After each incubation, filtrate was collected in microtiter plates, and dpm counted on each
In Table 3, the ^14 C-rFVIII was loaded at 20 nM (in PPF) and the radiolabeling yield was at 3.0×10^15 dpm/mole. In Table 4, the ^14 C-rFVIII was loaded at 30 nM (in PPF) and the radiolabeling yield was at 5.0×10^15 dpm/mole.

rFVIII [2] = target: T1, rFVIII; assay: column format binding assay, rFVIII mass per fraction by sandwich capture ELISA for the light chain; settings: for Flow through ng: 10,000 ng rFVIII in 1:10 PPF injected, 5° C.; for ELISA results % total: Table 9, 0.5M CaCl2 fraction
Description: (§1) Immunoassay on rFVIII using a sandwich capture ELISA for the light chain and activity assay using a chromogenic substrate (COATEST Factor VIII kit from diaPharma, Franklin, Ohio) were performed on a BIOMEK® automated liquid handling system from Beckman Instruments (Brea, Calif.). The monoclonal antibody for rFVIII light chain (known as C7F7), the ELISA assay standard (lot A70K019), and the control for the activity assay (lot A70A001 @ 140 IU/mL) were from the Bayer Corporation (Berkeley, Calif.). The standard for the activity assay was at 11.2 IU/mL (Bayer, Clayton, N.C.), calibrated against the MEGA 1 standard, which is a working standard used by American manufacturers for measuring factor VIII activity (21).
(§2) Additional confirmatory binding assay and performance of the discovered binding peptides in terms of total rFVIII and activity recovery was performed in a column chromatographic format on a microbore HPLC. The resins were packed into 0.4×5 cm columns (Thomson, Springfield, Va.) and tested on the MICHROM HPLC system (Michrom BioResources, Auburn, Calif.). The elution program for the trials utilized the following method. The column was pre-equilibrated with equilibration buffer (as above). A 1 mL aliquot of 1:10 PPF followed by 1 mL of rFVIII (10,000 ng) in 1:10 PPF were injected and allowed sufficient time to flow through the column using equilibration buffer. The column was then washed with step elutions of 0.5 M and 1.0 M CaCl2 in equilibration buffer. The column was exposed to equilibration buffer. Remaining protein was eluted with 2% by volume glacial acetic acid in water. Columns were kept at 5° C. during the chromatographic runs. For each 1 mL injection (equilibration buffer, 1:10 PPF and 10,000 ng rFVIII in 1:10 PPF), the chromatographic cycle was run for 45 minutes (injection, flow through, 0.5 M CaCl2, 1.0 M CaCl2, equilibration buffer, 2% acetic acid, equilibration buffer).
(§3) A Gilson FC204 fraction collector at the HPLC outlet collected individual eluates for further analysis. Each collection tube had 100 μL hSA added to it to stabilize the rFVIII. Fractions collected from the 2% acetic acid eluates were neutralized with 2 M Tris, pH 10.5 to bring the pH to neutrality. The fractions were analyzed for total protein by the integration of the absorbance at 280 nm, for rFVIII by immunoassay (sandwich capture ELISA), and for rFVIII activity by a chromogenic substrate assay.
Tables 5 and 6 present the results from the additional confirmatory binding assays using the column format. The chromatography method was run by injecting the samples at a flow rate of 865 μL/min (413 cm/hr). In order to provide a 10 minute residence time of sample in the column the flow was decreased to 17 μL/min (10 cm/hr) upon injection.
Following the incubation, the flow was set at 865 μL/min (413 cm/hr) for the step clutions of 0.5 M CaCl2, 1.0 M CaCl2, and 2% acetic acid. Results are expressed in terms of the total mass of rFVIII in each fraction, as determined by the sandwich capture ELISA assay for the rFVIII light chain. […] A control using a non-binding peptide sequence (IGF) is also shown for comparison--in this case, 95% of the rFVIII loaded to the column was collected in the flow through fraction. Additional controls with no

rFVIII [3] = target: T1, rFVIII; assay: rFVIII activity recovery from peptide columns by chromogenic substrate assay (COATEST); type: biochemical; settings: for 0.5M CaCl2 % total: activity recovery; for Flow through IU: rFVIII activity in fraction
Description: as §1, §2, §3
Tables 7 and 8 list the sequences for which activity recovery was determined by a chromogenic substrate assay (COASTEST kit, diaPharma, Franklin, Ohio). Chromatographc conditions are the same as described above for the results from Tables 5 and 6. It can be

[4] = Table 3, 14C-rFVIII 20 nM in PPF
[5] = Table 3, 14C-rFVIII 20 nM in PPF, 3.0 × 10^15 DPM/mole
[6] = Table 4, 14C-rFVIII 30 nM in PPF

T1 sequence (P00451 20-2351): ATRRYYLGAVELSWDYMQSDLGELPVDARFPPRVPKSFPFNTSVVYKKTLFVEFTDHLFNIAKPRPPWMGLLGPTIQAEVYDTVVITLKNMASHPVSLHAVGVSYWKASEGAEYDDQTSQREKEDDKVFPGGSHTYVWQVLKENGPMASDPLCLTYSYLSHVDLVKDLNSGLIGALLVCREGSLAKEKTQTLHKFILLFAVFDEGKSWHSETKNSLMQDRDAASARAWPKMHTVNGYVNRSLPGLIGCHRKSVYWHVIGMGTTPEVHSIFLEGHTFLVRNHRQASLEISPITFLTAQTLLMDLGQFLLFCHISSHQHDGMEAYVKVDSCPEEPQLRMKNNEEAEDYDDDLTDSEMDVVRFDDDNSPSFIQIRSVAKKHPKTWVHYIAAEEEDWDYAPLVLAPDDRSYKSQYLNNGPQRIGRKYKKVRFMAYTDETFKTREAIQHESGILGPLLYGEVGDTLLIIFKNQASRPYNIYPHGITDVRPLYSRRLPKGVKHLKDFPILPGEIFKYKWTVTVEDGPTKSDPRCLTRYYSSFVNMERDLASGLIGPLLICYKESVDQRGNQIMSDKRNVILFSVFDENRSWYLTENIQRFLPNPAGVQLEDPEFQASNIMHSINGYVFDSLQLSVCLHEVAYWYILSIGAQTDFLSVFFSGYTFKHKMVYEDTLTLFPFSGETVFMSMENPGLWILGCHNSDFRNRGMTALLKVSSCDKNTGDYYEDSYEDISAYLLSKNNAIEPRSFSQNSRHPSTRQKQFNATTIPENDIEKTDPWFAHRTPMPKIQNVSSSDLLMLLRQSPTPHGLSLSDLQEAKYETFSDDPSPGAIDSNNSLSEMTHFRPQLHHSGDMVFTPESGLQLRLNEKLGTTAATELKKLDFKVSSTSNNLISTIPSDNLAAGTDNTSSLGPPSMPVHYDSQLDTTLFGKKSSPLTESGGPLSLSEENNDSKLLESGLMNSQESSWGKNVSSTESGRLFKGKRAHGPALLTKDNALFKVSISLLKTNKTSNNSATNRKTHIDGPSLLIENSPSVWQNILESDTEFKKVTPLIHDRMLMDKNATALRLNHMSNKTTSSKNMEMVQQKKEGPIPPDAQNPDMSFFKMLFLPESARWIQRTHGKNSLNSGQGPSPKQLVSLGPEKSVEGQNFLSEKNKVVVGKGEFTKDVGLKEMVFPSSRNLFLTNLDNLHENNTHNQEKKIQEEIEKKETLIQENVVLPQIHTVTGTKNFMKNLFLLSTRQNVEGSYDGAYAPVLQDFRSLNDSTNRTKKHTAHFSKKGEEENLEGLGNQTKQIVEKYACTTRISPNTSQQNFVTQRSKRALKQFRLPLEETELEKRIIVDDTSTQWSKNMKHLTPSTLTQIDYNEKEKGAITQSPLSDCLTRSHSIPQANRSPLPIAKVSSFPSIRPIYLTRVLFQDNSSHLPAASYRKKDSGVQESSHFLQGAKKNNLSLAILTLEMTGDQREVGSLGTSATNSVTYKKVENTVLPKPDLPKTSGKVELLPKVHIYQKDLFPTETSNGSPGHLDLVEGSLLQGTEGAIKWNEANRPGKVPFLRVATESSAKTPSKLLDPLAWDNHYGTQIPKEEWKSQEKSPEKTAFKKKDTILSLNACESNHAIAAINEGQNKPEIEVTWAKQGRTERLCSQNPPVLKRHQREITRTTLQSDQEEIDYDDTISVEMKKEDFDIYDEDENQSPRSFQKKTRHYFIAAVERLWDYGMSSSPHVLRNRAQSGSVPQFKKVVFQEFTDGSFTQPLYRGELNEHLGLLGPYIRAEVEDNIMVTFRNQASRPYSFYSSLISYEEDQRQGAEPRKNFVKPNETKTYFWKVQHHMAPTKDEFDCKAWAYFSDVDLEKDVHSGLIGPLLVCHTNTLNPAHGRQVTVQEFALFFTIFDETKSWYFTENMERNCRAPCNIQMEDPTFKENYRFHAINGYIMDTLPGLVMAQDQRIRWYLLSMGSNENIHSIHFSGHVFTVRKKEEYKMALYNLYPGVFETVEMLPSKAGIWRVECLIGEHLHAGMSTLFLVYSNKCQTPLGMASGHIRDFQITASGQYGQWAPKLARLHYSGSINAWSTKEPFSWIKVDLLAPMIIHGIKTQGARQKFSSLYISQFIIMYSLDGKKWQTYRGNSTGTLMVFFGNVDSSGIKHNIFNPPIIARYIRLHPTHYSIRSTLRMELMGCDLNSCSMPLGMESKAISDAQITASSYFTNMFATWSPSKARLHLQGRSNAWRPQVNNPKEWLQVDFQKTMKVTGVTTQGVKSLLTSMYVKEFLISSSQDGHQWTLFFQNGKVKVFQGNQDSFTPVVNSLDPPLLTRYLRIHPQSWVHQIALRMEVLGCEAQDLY
T1 sequence (P00451 1668-2351 limits assumed): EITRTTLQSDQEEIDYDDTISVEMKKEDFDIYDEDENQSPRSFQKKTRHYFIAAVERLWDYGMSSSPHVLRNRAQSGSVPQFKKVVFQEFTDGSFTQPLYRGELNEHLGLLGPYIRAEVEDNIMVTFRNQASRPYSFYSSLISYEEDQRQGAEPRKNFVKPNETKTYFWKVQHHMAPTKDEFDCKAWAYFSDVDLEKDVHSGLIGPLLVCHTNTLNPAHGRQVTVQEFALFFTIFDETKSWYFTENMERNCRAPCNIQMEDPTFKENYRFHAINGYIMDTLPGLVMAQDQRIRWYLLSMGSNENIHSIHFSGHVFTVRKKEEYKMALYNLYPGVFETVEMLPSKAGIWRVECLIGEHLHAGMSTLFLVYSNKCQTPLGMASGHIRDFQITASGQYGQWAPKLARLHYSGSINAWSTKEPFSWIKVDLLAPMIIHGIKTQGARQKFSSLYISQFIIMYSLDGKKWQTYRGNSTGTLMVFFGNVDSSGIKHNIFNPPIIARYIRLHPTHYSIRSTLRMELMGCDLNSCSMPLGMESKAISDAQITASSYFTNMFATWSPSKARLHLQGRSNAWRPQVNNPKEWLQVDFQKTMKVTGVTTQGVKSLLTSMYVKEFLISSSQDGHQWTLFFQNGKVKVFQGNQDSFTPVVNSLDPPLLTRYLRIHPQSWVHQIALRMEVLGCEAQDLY

6 (HYWFYK) [compound 6]
Total dpm (rFVIII [1]; Table 3, 14C-rFVIII 20 nM): 3881 dpm
0.5M CaCl2 % total (rFVIII [1]; [4]): 83%
2% acetic acid % total (rFVIII [1]; [4]): 12%
2% acetic acid dpm (rFVIII [1]; [4]): 458 dpm
0.5M CaCl2 dpm (rFVIII [1]; [5]): 3236 dpm
beads % total (rFVIII [1]; Table 3, 14C-rFVIII 20 nM): 5%
beads dpm (rFVIII [1]; Table 3, 14C-rFVIII 20 nM): 187 dpm
0.5M CaCl2 ng (rFVIII [2]; Table 5): 5658 ng
0.5M CaCl2 % total (rFVIII [2]; Table 5): 90%
2% acetic acid % total (rFVIII [2]; Table 5): 3%
2% acetic acid ng (rFVIII [2]; Table 5): 160 ng
Flow through % total (rFVIII [2]; Table 5): 2%
Total ng (rFVIII [2]; Table 5): 6320 ng
Flow through ng (rFVIII [2]; Table 5): 105 ng
ELISA results % total (rFVIII [2]): 90%
0.5M CaCl2 IU (rFVIII [3]; Table 7): 59.4 IU
2% acetic acid % total (rFVIII [3]; Table 7): 1%
2% acetic acid IU (rFVIII [3]; Table 7): 0.5 IU
Flow through % total (rFVIII [3]; Table 7): 0%
Total IU (rFVIII [3]; Table 7): 68.7 IU
0.5M CaCl2 % total (rFVIII [3]; Table 7): 86%
Flow through IU (rFVIII [3]; Table 7): 0.0 IU
Activity results % total (rFVIII [3]; Table 9, 0.5M CaCl2 fraction): 86%

16 (WRRHRY) [compound 16]
Total dpm (rFVIII [1]; Table 3, 14C-rFVIII 20 nM): 2897 dpm
0.5M CaCl2 % total (rFVIII [1]; [4]): 21%
2% acetic acid % total (rFVIII [1]; [4]): 45%
2% acetic acid dpm (rFVIII [1]; [4]): 1302 dpm
0.5M CaCl2 dpm (rFVIII [1]; [5]): 608 dpm
beads % total (rFVIII [1]; Table 3, 14C-rFVIII 20 nM): 34%
beads dpm (rFVIII [1]; Table 3, 14C-rFVIII 20 nM): 986 dpm
0.5M CaCl2 ng (rFVIII [2]; Table 5): 338 ng
0.5M CaCl2 % total (rFVIII [2]; Table 5): 9%
2% acetic acid % total (rFVIII [2]; Table 5): 71%
2% acetic acid ng (rFVIII [2]; Table 5): 2550 ng
Flow through % total (rFVIII [2]; Table 5): 2%
Total ng (rFVIII [2]; Table 5): 3615 ng
Flow through ng (rFVIII [2]; Table 5): 56 ng

22 (FVFLVR) [compound 22]
Total dpm (rFVIII [1]; Table 4, 14C-rFVIII 30 nM): 4116 dpm
0.5M CaCl2 % total (rFVIII [1]; [6]): 16%
2% acetic acid % total (rFVIII [1]; [6]): 19%
2% acetic acid dpm (rFVIII [1]; [6]): 783 dpm
0.5M CaCl2 dpm (rFVIII [1]; Table 4, 14C-rFVIII 30 nM in PPF, 5.0 × 10^15 dpm/mole): 675 dpm
beads % total (rFVIII [1]; Table 4, 14C-rFVIII 30 nM): 65%
beads dpm (rFVIII [1]; Table 4, 14C-rFVIII 30 nM): 2658 dpm
binding of rFVIII in words (rFVIII [1]; plate format): tight binding
0.5M CaCl2 ng (rFVIII [2]; Table 6): 4 ng
0.5M CaCl2 % total (rFVIII [2]; Table 6): 0%
2% acetic acid % total (rFVIII [2]; Table 6): 100%
2% acetic acid ng (rFVIII [2]; Table 6): 4500 ng
Flow through % total (rFVIII [2]; Table 6): 0%
Total ng (rFVIII [2]; Table 6): 4504 ng
Flow through ng (rFVIII [2]; Table 6): 0 ng
0.5M CaCl2 IU (rFVIII [3]; Table 8): 0.0 IU
2% acetic acid % total (rFVIII [3]; Table 8): 100%
2% acetic acid IU (rFVIII [3]; Table 8): 2.3 IU
Flow through % total (rFVIII [3]; Table 8): 0%
Total IU (rFVIII [3]; Table 8): 2.3 IU
0.5M CaCl2 % total (rFVIII [3]; Table 8): 0%
Flow through IU (rFVIII [3]; Table 8): 0.0 IU

8 (RPRW) [compound 8]
Total dpm (rFVIII [1]; Table 3, 14C-rFVIII 20 nM): 4098 dpm
0.5M CaCl2 % total (rFVIII [1]; [4]): 86%
2% acetic acid % total (rFVIII [1]; [4]): 9%
2% acetic acid dpm (rFVIII [1]; [4]): 377 dpm
0.5M CaCl2 dpm (rFVIII [1]; [5]): 3543 dpm
beads % total (rFVIII [1]; Table 3, 14C-rFVIII 20 nM): 4%
beads dpm (rFVIII [1]; Table 3, 14C-rFVIII 20 nM): 178 dpm
0.5M CaCl2 ng (rFVIII [2]; Table 5): 5449 ng
0.5M CaCl2 % total (rFVIII [2]; Table 5): 97%
2% acetic acid % total (rFVIII [2]; Table 5): 0%
2% acetic acid ng (rFVIII [2]; Table 5): 10 ng
Flow through % total (rFVIII [2]; Table 5): 2%
Total ng (rFVIII [2]; Table 5): 5623 ng
Flow through ng (rFVIII [2]; Table 5): 122 ng
ELISA results % total (rFVIII [2]): 97%
